Data from patent US20210263044A1.

Target: Protein G bound to porous resin beads (Pierce Biotechnology, Protein G UltraLink resin) (UniProt P19909)
Assay: 100 ug IgG mixed with 10 uL Protein G resin bead suspension; supernatant analysed by SDS-PAGE, band pixels

residual amount of antibody (unbound IgG remaining in the supernatant): 3%
Substance: human immunoglobulin G (IgG) (antibody)
